Read-outs that look alike come from different tables or passages of the source.
What was measured:
IL-7Rα = target: T1, IL-7Rα (Homo sapiens, UniProt P16871); assay: Biolayer interferometry binding to IL-7Rα
T1 construct: IL-7Rα (residues 37-231, Uniprot ID P16871); IgK signal peptide (N); made in house; host or cells: mammalian cells
T1 sequence (P16871 37-231): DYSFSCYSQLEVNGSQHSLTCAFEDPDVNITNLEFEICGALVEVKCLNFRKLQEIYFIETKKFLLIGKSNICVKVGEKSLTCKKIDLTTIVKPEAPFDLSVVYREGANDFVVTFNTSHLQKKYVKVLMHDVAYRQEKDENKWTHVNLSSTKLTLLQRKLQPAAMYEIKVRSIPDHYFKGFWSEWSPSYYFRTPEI

[1] = Circular dichroism wavelength scans and temperature melts (Tm); format: physicochemical
[2] = target: T2, TGF-β (Acro Biosystems Cat #TG1-H8217) (human, UniProt P01137 279-390); assay: BLI (Octet); biotinylated target on streptavidin sensors, miniprotein as analyte
T2 construct: also called TGFb; Transforming growth factor beta

[3] = target: Human TrkA ECD (residues 36-382) with C-terminal BAP tag and 6xHis tag (human, UniProt P04629 36-382); assay: biolayer interferometry
[4] = target: human TrkA ECD (residues 36-382) (human, UniProt P04629 36-382); assay: BLI (Octet); biotinylated target on streptavidin sensors, miniprotein as analyte
[5] = target: T3, PDGFR ectodomain (residues 33-314) (human, UniProt P09619 33-314); assay: as above
T3 construct: range 33-314; also called Platelet-derived growth factor receptor

[6] = target: T4, EGFR ectodomain (residues 25-525) (human, UniProt P00533 25-525); assay: as above
T4 construct: also called EGER; Epidermal growth factor receptor

[7] = target: T5, FGFR2 ectodomain (residues 147-366) with C-terminal TEV/His/AviTag (human, UniProt P21802 147-366); assay: biolayer interferometry
T5 construct: range 147-366; also called Fibroblast growth factor receptor 2

[8] = target: T6, FGFR2 ectodomain (residues 147-366) (human, UniProt P21802 147-366); assay: BLI (Octet); biotinylated target on streptavidin sensors, miniprotein as analyte
T6 construct: range 147-366; also called FGER2; Fibroblast growth factor receptor 2

signaling through FGFR2 = assay: Inhibition of native agonist signaling through FGFR2 on cells in culture; format: cell-based; settings: data not shown
FGFR2 = target: T7, FGFR2 (Homo sapiens, UniProt P21802); assay: Biolayer interferometry binding to FGFR2
T7 construct: FGFR2 (residues 147-366, Uniprot ID P21802); IgK signal peptide (N); made in house; host or cells: mammalian cells

[9] = target: T8, Biotinylated CD3 protein (Abcam Cat #ab205994) (human, UniProt P04234 22-105); assay: BLI (Octet); biotinylated target on streptavidin sensors, miniprotein as analyte
T8 construct: also called CD3δ; CD3 delta chain

[10] = target: IL-7Rα ectodomain (residues 37-231) (human, UniProt P16871 37-231); assay: as above
[11] = target: T9, InsulinR ectodomain (residues 28-953) (human, UniProt P06213 28-953); assay: BLI (Octet); miniprotein immobilized on AR2G sensors, insulin receptor as analyte
T9 construct: range 28-953; also called IR; Insulin receptor

IGF1R = target: T10, IGF1R (Homo sapiens, UniProt P08069); assay: Biolayer interferometry binding to IGF1R (MBP-tagged miniprotein as analyte)
T10 construct: IGF1R (residues 31-930, Uniprot ID P08069); IgK signal peptide (N); made in house; host or cells: mammalian cells

[12] = target: T11, IGF1R ectodomain (residues 31-930) (human, UniProt P08069 31-930); assay: BLI (Octet); biotinylated target on streptavidin sensors, MBP-tagged miniprotein as analyte
T11 construct: range 31-930; also called IGFIR; Insulin-like growth factor 1 receptor

InsulinR = target: T12, InsulinR (Homo sapiens, UniProt P06213); assay: Biolayer interferometry binding to InsulinR (miniprotein on AR2G biosensor, receptor as analyte)
T12 construct: InsulinR (residues ID 28-953, Uniprot ID P06213); IgK signal peptide (N); TEV cleavage site (C); 6-His-tag (C); AviTag (C); made in house; host or cells: mammalian cells

[13] = target: VirB8-like protein from Rickettsia typhi (Rickettsia typhi); assay: BLI (Octet); biotinylated target on streptavidin sensors, miniprotein as analyte
VirB8 = format: binding, Rickettsia typhi; settings: read-out: Octet kD
[14] = target: T13, Tie2 ectodomain (residues 23-445) (human, UniProt Q02763 23-445); assay: BLI (Octet); biotinylated target on streptavidin sensors, MBP-tagged miniprotein as analyte
T13 construct: range 23-445; also called Angiopoietin-1 receptor

Tie2 = target: T14, Tie2 (Homo sapiens, UniProt Q02763); assay: Biolayer interferometry binding to Tie2 (MBP-tagged miniprotein as analyte)
T14 construct: Tie2 (residues 23-445, Uniprot ID Q02763); IgK signal peptide (N); made in house; host or cells: mammalian cells

[15] = target: Influenza A H3 hemagglutinin (A/Hong Kong/1/1968) ectodomain (Influenza A virus (A/Hong Kong/1/1968), UniProt Q91MA7 17-530); assay: BLI (Octet); biotinylated target on streptavidin sensors, miniprotein as analyte
[16] = target: T15, Influenza A H1 hemagglutinin (A/Puerto Rico/8/1934), ectodomain (Influenza A virus (A/Puerto Rico/8/1934), UniProt P03452 18-528); assay: method not named in the sentence (FIG. 7b)
T15 construct: extracellular domain

T14 sequence (Q02763 23-445): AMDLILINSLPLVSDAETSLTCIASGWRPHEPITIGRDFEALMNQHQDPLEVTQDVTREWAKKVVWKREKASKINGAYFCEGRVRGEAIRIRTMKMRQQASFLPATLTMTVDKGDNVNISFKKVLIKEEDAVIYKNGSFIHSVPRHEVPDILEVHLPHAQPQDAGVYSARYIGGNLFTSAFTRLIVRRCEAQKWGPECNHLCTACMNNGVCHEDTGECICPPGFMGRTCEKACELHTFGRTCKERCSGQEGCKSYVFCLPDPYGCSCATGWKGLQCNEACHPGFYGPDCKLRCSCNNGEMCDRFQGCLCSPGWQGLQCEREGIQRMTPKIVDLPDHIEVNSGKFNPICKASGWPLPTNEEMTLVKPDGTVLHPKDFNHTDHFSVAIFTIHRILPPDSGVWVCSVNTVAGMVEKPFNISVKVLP
T2 sequence (P01137 279-390 limits assumed): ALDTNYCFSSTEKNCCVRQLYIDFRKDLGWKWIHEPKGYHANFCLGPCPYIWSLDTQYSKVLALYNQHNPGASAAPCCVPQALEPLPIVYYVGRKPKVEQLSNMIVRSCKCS
IL-7Rα ectodomain (residues 37-231), sequence (P16871 other isoform, or with tags, fused parts or gaps limits assumed): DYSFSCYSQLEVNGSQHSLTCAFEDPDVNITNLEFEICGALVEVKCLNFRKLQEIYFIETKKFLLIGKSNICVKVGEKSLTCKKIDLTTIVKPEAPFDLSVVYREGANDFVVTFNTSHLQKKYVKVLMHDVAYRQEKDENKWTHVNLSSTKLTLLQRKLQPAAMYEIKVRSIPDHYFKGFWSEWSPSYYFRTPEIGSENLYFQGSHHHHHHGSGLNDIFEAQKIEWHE
human TrkA ECD (residues 36-382), sequence (P04629 other isoform, or with tags, fused parts or gaps limits assumed): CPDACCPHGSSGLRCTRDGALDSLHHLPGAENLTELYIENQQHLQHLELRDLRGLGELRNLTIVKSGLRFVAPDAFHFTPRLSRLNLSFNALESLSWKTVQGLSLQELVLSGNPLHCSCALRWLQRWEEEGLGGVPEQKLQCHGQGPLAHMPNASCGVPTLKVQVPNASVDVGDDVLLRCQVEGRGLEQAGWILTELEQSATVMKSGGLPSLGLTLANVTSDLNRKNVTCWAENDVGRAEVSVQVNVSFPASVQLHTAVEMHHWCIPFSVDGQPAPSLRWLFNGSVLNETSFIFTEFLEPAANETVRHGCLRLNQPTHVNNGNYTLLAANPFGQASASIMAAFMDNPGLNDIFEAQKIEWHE
T8 sequence (P04234 22-105 limits assumed): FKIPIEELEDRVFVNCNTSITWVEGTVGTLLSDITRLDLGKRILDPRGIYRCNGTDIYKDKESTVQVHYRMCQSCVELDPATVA
T3 sequence (P09619 other isoform, or with tags, fused parts or gaps limits assumed): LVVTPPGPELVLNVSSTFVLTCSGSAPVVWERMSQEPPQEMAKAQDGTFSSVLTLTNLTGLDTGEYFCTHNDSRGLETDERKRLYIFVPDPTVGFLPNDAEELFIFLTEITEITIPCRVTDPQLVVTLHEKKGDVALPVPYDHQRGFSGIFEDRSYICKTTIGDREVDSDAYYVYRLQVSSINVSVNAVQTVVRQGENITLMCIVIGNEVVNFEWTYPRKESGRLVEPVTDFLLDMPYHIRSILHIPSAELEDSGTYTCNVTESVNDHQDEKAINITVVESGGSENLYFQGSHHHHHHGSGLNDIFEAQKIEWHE
Human TrkA ECD (residues 36-382) with C-terminal BAP tag and 6xHis tag, sequence (P04629 other isoform, or with tags, fused parts or gaps limits assumed): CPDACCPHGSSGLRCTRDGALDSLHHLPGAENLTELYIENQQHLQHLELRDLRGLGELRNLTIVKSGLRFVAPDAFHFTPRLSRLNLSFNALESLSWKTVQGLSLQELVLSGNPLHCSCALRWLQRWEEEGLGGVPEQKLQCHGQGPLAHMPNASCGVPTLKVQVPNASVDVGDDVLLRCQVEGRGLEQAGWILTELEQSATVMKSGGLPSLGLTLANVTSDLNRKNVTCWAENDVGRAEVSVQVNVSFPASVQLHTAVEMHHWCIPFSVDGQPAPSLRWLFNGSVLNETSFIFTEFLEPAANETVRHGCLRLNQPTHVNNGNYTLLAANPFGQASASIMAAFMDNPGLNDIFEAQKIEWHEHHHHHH
T5 sequence (P21802 other isoform, or with tags, fused parts or gaps limits assumed, form in doubt): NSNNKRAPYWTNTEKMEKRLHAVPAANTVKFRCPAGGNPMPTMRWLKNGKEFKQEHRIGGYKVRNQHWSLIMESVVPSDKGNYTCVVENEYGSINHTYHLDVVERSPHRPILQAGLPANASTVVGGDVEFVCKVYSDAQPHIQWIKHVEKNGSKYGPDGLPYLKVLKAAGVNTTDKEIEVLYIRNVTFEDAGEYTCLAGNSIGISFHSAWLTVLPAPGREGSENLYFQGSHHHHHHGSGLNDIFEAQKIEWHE
T6 sequence (P21802 other isoform, or with tags, fused parts or gaps limits assumed, form in doubt): as above
T7 sequence (P21802 147-366): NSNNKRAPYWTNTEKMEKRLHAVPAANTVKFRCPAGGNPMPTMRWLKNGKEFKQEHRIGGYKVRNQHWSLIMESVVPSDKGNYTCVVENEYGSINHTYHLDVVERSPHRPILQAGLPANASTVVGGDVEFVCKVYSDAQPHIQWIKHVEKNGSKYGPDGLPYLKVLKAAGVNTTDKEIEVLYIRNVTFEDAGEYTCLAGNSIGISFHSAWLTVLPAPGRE
T13 sequence (Q02763 other isoform, or with tags, fused parts or gaps limits assumed): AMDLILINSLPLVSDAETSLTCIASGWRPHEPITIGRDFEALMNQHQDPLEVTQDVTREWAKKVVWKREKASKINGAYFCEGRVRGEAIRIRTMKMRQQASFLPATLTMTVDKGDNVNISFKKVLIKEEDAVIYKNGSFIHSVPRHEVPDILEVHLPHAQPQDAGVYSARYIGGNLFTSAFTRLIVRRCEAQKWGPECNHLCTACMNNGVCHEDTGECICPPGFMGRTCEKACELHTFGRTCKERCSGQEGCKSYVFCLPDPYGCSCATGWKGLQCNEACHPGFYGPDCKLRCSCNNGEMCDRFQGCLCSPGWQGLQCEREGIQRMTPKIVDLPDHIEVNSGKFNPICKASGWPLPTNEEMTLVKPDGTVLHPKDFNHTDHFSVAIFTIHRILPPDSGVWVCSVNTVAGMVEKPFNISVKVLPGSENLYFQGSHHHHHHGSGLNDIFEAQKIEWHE

## IL-7Rα_mb (SVIEKLRKLEKQARKQGDEVLVMLARMVLEYLEKGWVSEEDADESADRIEEVLKK)
IL-7Rα; target IL-7Rα, optimized sequence, read-out: Octet kD
  Kd: 0.312 nM
[1]; optimized sequence
  TM: >95 °C

## IL-7Rα binder: de novo miniprotein binder for IL-7Rα targeting the IL-7 binding site; probably IL7Ra_mb2, SEQ ID NO: 760 (SVKKKVRKVEKKARKAGDELAVLLARRVLEALEKGLVSEEDADESADRIEEALKK)
IL-7Rα; targeting the IL-7 binding site
  affinity for IL-7Rα (in words): picomolar affinity

B1: TGF-β_mb (designed binder)
chain: MSHHHHHHHHSENLYFQSGGGHCTIEVVGVDPEKVEAIAAAYGAEVCEKDGKFEIHLDDPHSAESAAVAISVLTNRPVRLQC
[1]; optimized sequence
  TM: >95 °C
[2]
  Kd: 270 nM

B2: TrkA_mb (optimized TrkA binder, purified from E. coli) (designed binder)
chain: MSHHHHHHHHSENLYFQSGGGRDEIKERIFKAVVRAIVTGNPEQLKEAKKLLEKLKKLGRLDQDAKKFEKAIRQVEKRLRS
[3]
  Kd: ≤ 1 nM

B3: TrkA_mb (designed binder)
chain: B2 chain
[4]
  Kd: 1.4 nM

B4: PDGFR_mb (designed binder)
chain: MSHHHHHHHHSENLYFQSGGGDDERLATLAFRALIKRAGVKNLDVKVTNGKVRVTITGRDQASFKALQLVFALARRLGLQVQIDTR
[1]; optimized sequence
  TM: >95 °C
[5]
  Kd: 53 nM

B5: EGFRn_mb (designed binder)
chain: MSHHHHHHHHSENLYFQSGGGDHWEEVFRWALEHLQEATQQNDPQKAKKILEEAHKWLRRELSEEEARAVVRWLKQLVDRELS
[1]; optimized sequence
  TM: >95 °C
[6]
  Kd: 1.7 nM

B6: FGFR2_mb (optimized FGFR2 binder, purified from E. coli) (designed binder)
chain: MSHHHHHHHHSENLYFQSGGGDRRKEMDKVYRTAFKRITSTPDKEKRKEVVKEATEQLRRIAKDEEEKKKAAYMILFLKTLG
notes: also called FGFR2_mb3
[7]
  Kd: ≤ 1 nM

B7: FGFR2_mb (designed binder)
chain: B6 chain
[1]; optimized sequence
  TM: 71.1 ºC ° C.
[8]
  Kd: 0.543 nM

B8: FGFR2 binder: optimized de novo miniprotein binder to FGFR2; probably SEQ ID NO: 144 (protein)
chain: DRRKEMDKVYRTAFKRITSTPDKEKRKEVVKEATEQLRRIAKDEEEKKKAAYMILFLKTLG
Signaling through FGFR2
  inhibition of signaling through FGFR2 by the native agonist: strong inhibition of signaling
FGFR2
  affinity for FGFR2 (in words): picomolar

B9: EGFRc_mb (designed binder)
chain: MSHHHHHHHHSENLYFQSGGGSLDEAKKLLQEAEKLARKLNDRMELAYVEFLKHILETAKKQNDKRTIESVRDMARDALEELQS
[1]; optimized sequence
  TM: 71.2 °C
[6]
  Kd: 6.8 nM

B10: CD3δ_mb (designed binder)
chain: MSHHHHHHHHSENLYFQSGGGNHIACEIHNPEAAKEIAKVANVRRVYFIKQPGNRYFVLLKNADPEGVKKVRSKYNVRCVIRE
[1]; optimized sequence
  TM: >95 °C
[9]
  Kd: 612 nM

B11: IL-7Rα_mb (designed binder)
chain: MSHHHHHHHHSENLYFQSGGGSVIEKLRKLEKQARKQGDEVLVMLARMVLEYLEKGWVSEEDADESADRIEEVLKK
[10]
  Kd: 0.312 nM

B12: InsulinR_mb (designed binder)
chain: MSHHHHHHHHSENLYFQSGGGDEELMELVYEAVEKNDPELLFEAWMELASLLDETGDPKIEEALGLLQQVDGGNPDAGRRIKELFK
[11]
  Kd: 270 nM
[1]; optimized sequence
  TM: 65 °C ° C.

B13: MBP-tagged IGF1R_mb (designed binder)
chain: STRNAEFIMLLLELCVKSKNDPQVQEYVKKVKKQVERLVGNGDEKKAEEVARKALEYCADG
notes: not shown: N-terminal 6 His-tag and MBP tag
IGF1R
  binding affinity for IGF1R (in words): weak and low
[12]
  Kd: 860 nM
[1]; optimized sequence
  TM: >95 °C

B14: InsulinR binder: optimized de novo miniprotein binder to insulin receptor; probably InsulinR_mb5, SEQ ID NO: 788 (protein)
chain: DEELLELVYEAVEKNDPRLLFEAWMILASLLDKTGDPKIEELLRLLQLVDRGDPDARRRIKELFK
InsulinR
  binding affinity for InsulinR (in words): weak

B15: VirB8_mb (designed binder)
chain: MSHHHHHHHHSENLYFQSGGGNAEEITEKATLVGIEAWLLAKDEEQKKKVRTLNRQVKKLLQQNDLDQAKRVLDQLKSVLEDLKS
[13]
  Kd: 0.5 nM
VirB8
  Kd: 0.5 nM
[1]
  TM: 66.2 °C

B16: MBP-tagged Tie2_mb (designed binder)
chain: SIDEELERLLEEAGVDPELIDDLYAVIYQLYIRGLSDKDVLRFLLENLERDGTPLRRVVEELLKR
notes: as for B13
[14]
  Kd: 584 nM

B17: Tie2_mb (protein)
chain: B16 chain
modifications: left off: large carriers
[1]; optimized sequence
  TM: >95 °C

B18: Tie2 binder: optimized de novo miniprotein binder to Tie2; probably Tie2_mb2, SEQ ID NO: 1451 (protein)
chain: B16 chain
Tie2
  binding affinity for Tie2 (in words): weak and low

B19: H3_mb (designed binder)
chain: MSHHHHHHHHSENLYFQSGGGSQHEKFLEWMLRKIEEAIKRGNKISAEFLINLAKNFIHVLGDDEIRRRLERLERQLH
[1]
  TM: >95 °C
[15]
  Kd: 320 nM

B20: H3_mb (optimized H3 hemagglutinin binder, purified from E. coli) (designed binder)
chain: B19 chain
[16]
  binding result: binds

Source: patent US20240376156A1, “MULTIPLE DE NOVO DESIGNED PROTEIN BINDING PROTEINS” (UNIVERSITY OF WASHINGTON, priority 2021, published 2024)
